Assay results reported in patent US8399201B2, “Polypeptide complex of TRPM8 and calmodulin and its uses thereof” (Janssen Pharmaceutica N.V., priority 2005, dated 2013).

B1: TRPM8-1/pAGA3: Rat TRPM8 fragment, residues M1-K432, 432 aa, in vitro translated from pAGA3 (protein)
chain: MSFEGARLSMRSRRNGTLGSTRTLYSSVSRSTDVSYSESDLVNFIQANFKKRECVFFTRDSKAMESICKCGYAQSQHIEGTQINQNEKWNYKKHTKEFPTDAFGDIQFETLGKKGKYLRLSCDTDSETLYELLTQHWHLKTPNLVISVTGGAKNFALKPRMRKIFSRLIYIAQSKGAWILTGGTHYGLMKYIGEVVRDNTISRNSEENIVAIGIAAWGMVSNRDTLIRNCDDEGHFSAQYIMDDFMRDPLYILDNNHTHLLLVDNGCHGHPTVEAKLRNQLEKYISERTSQDSNYGGKIPIVCFAQGGGRETLKAINTSVKSKIPCVVVEGSGQIADVIASLVEVEDVLTSSMVKEKLVRFLPRTVSRLPEEEIESWIKWLKEILESPHLLTVIKMEEAGDEVVSSAISYALYKAFSTNEQDKDNWNGQLKL
B2: TRPM8-2/pAGA3: Rat TRPM8 fragment, residues M353-T690, 337 aa (protein)
chain: MVKEKLVRFLPRTVSRLPEEEIESWIKWLKEILESPHLLTVIKMEEAGDEVVSSAISYALYKAFSTNEQDKDNWNGQLKLLLEWNQLDLASDEIFTNDRRWESADLQEVMFTALIKDRPKFVRLFLENGLNLQKFLTNEVLTELFSTHFSTLVYRNLQIAKNSYNDALLTFVWKLVANFRRSFWKEDRSSREDLDVELHDASLTTRHPLQALFIWAILQNKKELSKVIWEQTKGCTLAALGASKLLKTLAKVKNDINAAGESEELANEYETRAVELFTECYSSDEDLAEQLLVYSCEAWGGSNCLELAVEATDQHFIAQPGVQNFLSKQWYGEISRDT
B3: TRPM8-4/pAGA3: Rat TRPM8 fragment, residues I609-K1104 (end), 495 aa (protein)
chain: NAAGESEELANEYETRAVELFTECYSSDEDLAEQLLVYSCEAWGGSNCLELAVEATDQHFIAQPGVQNFLSKQWYGEISRDTKNWKIILCLFIIPLVGCGLVSFRKKPIDKHKKLLWYYVAFFTSPFVVFSWNVVFYIAFLLLFAYVLLMDFHSVPHTPELILYALVFVLFCDEVRQWYMNGVNYFTDLWNVMDTLGLFYFIAGIVFRLHSSNKSSLYSGRVIFCLDYIIFTLRLIHIFTVSRNLGPKIIMLQRMLIDVFFFLFLFAVWMVAFGVARQGILRQNEQRWRWIFRSVIYEPYLAMFGQVPSDVDSTTYDFSHCTFSGNESKPLCVELDEYNLPRFPEWITIPLVCIYMLSTNILLVNLLVAMFGYTVGIVQENNDQVWKFQRYFLVQEYCNRLNIPFPFVVFAYFYMVVKKCFKCCCKEKNTESSACCFRNEDNETLAWEGVMKENYLVKINTKANDNAEEMRHRFRQLDTKLNDLKGLLKEIANKIK
B4: TRPM8-6/pAGA3: Rat TRPM8 fragment, residues M63-S352, 289 aa (protein)
chain: AMESICKCGYAQSQHIEGTQINQNEKWNYKKHTKEFPTDAFGDIQFETLGKKGKYLRLSCDTDSETLYELLTQHWHLKTPNLVISVTGGAKNFALKPRMRKIFSRLIYIAQSKGAWILTGGTHYGLMKYIGEVVRDNTISRNSEENIVAIGIAAWGMVSNRDTLIRNCDDEGHFSAQYIMDDFMRDPLYILDNNHTHLLLVDNGCHGHPTVEAKLRNQLEKYISERTSQDSNYGGKIPIVCFAQGGGRETLKAINTSVKSKIPCVVVEGSGQIADVIASLVEVEDVLTSS
B5: TRPM8-7/pAGA3: Rat TRPM8 fragment, residues V145-S352, 207 aa (protein)
chain: VISVTGGAKNFALKPRMRKIFSRLIYIAQSKGAWILTGGTHYGLMKYIGEVVRDNTISRNSEENIVAIGIAAWGMVSNRDTLIRNCDDEGHFSAQYIMDDFMRDPLYILDNNHTHLLLVDNGCHGHPTVEAKLRNQLEKYISERTSQDSNYGGKIPIVCFAQGGGRETLKAINTSVKSKIPCVVVEGSGQIADVIASLVEVEDVLTSS
B6: TRPM8-8/pAGA3: Rat TRPM8 fragment, residues M219-S352, 133 aa (protein)
chain: MVSNRDTLIRNCDDEGHFSAQYIMDDFMRDPLYILDNNHTHLLLVDNGCHGHPTVEAKLRNQLEKYISERTSQDSNYGGKIPIVCFAQGGGRETLKAINTSVKSKIPCVVVEGSGQIADVIASLVEVEDVLTSS
B7: TRPM8-9/pAGA3: Rat TRPM8 fragment, residues A172-S352, 180 aa (protein)
chain: AQSKGAWILTGGTHYGLMKYIGEVVRDNTISRNSEENIVAIGIAAWGMVSNRDTLIRNCDDEGHFSAQYIMDDFMRDPLYILDNNHTHLLLVDNGCHGHPTVEAKLRNQLEKYISERTSQDSNYGGKIPIVCFAQGGGRETLKAINTSVKSKIPCVVVEGSGQIADVIASLVEVEDVLTSS
B8: TRPM8-10/pAGA3: Rat TRPM8 fragment, residues D198-S352, 154 aa (protein)
chain: DNTISRNSEENIVAIGIAAWGMVSNRDTLIRNCDDEGHFSAQYIMDDFMRDPLYILDNNHTHLLLVDNGCHGHPTVEAKLRNQLEKYISERTSQDSNYGGKIPIVCFAQGGGRETLKAINTSVKSKIPCVVVEGSGQIADVIASLVEVEDVLTSS

Biological target: T1, calmodulin (Rattus norvegicus, UniProt P0DP29)
T1 construct: made in house; host or cells: Escherichia coli BL21 (pGEX-4T-1 based plasmid)
Test: Pull-down of 35S-methionine-labelled TRPM8 fragments on GST-CaM agarose-GSH beads, SDS/PAGE and autoradiography
Assay type: binding
Parameters: key to Binding (binding activity to calmodulin): (+) binding was detected; (−) no binding was detected
Conditions: TRPM8 fragments, FIG. 1 and FIG. 2
Experimental: ^35S-methionine labelled TRPM8 fragments were synthesized using TnT® T7 Quick Coupled Transcription/Translation System (Promega) following the vendor recommended protocol. Briefly, 10 μl of 0.1 μg/μl pAGA3 based TRPM8 construct (listed in Table 1) was added to 90 μl of TNT Quick Master Mix with 2 μl of [^35S]-methionine (1000 Ci/mmmol at 10 mCi/ml). The reaction mixture was incubated at 30° C. for 90 min. Aliquots of the incubation mixtures were used directly either for analysis by SDS/PAGE to confirm synthesis of proteins of the desired size or for the ability to bind to GST or GST-CaM.
The GST-CaM fusion plasmid was based on pGEX-4T-1 (Amersham Pharmacia). The CaM was fused to the C-terminus of GST. After transformation into Escherichia coli BL21, a single colony was picked and grown in brow medium to OD of 1.0 at 600 nm. The synthesis of the fusion protein was induced with 0.2 mM isopropyl β-D-thiogalactoside (IPTG). After growing 2-3 hours in the presence of IPTG at 27° C., the cells were collected by centrifugation, resuspended in NETN lysis buffer (0.5% Nonidet P-40/1 mM EDTA/20 mM Tris-HCl, pH8.0/100 mM NaCl; 1 ml of buffer per 20 ml of culture), and lysed by sonication. The cell lysate was separated from the cell debris by centrifugation at 10,000 g for 10 min at 4° C. GST-CaM in the cell lysate was adsorbed for 30 min at room temperature to agarose-glutathione (GSH) beads (Amersham Pharmacia) (1 vol. of lysates/1 vol of 50% (vol/vol) slurry of Agarose-GSH beads in NETN). The beads were washed with binding buffer (20 mM Tris-HCl, pH7.5/100 mM NaCl/2 mM CaCl2/0.5% Tween20).
Agarose-GSH beads (50% (vol./vol.)) bound with about 1 μg of GST or GST-CaM were incubated with 10 μl of ^35S-labelled TRPM8 fragment for 30 min at room temperature in a final volume of 200 μl of binding buffer. At the end of the incubation, the beads were washed three times with 1.0 ml of binding buffer and resuspended in 20 μl of 2× laemmli's sample loading buffer. Protein(s) bound to the beads, including the GST-CaM fusion protein, and possibly the ^35S-labelled TRPM8 fragment that interact with the GST-CaM fusion protein, were separated by SDS/PAGE followed by autoradiography.

Molecule	binding to CaM (result in words)
B1	found to bind to CaM
B2	not
B3	not
B4	found to bind CaM
B5	found to bind CaM

Same assay, conditions: rat TRPM8 constructs; binding buffer with 2 mM CaCl2, 30 min room temperature

Molecule	Binding (binding activity to calmodulin)
B1	+
B2	−
B3	−
B4	+
B5	+
B6	−
B7	−
B8	−
